Data published in US20040014159.

What was measured:
[1] = system: T1, bis-SPK-2 (KKALRRASLKG-R110-GKLSARRLAKK)
T1 sequence: KKALRRASLKG

[2] = system: T2, bis-STP-R110 (RRAT(PO3)VA-R110-AV(PO3)TARR)
T2 sequence: RRATVA

[3] = system: T3, bis-PTK5p-R110 (YIY(PO3)GAFKRRG-R110-GRRKFAG(PO3)YIY)
T3 sequence: YIYGAFKRRG

[4] = system: T4, kemptide-AMC (LRRASLG-AMC)
T4 sequence: LRRASLG

[5] = system: T5, bis-SPK-4 (KKALRKASVRG-R110-GRVSAKRLAKK)
T5 sequence: KKALRKASVRG

[6] = system: T6, LRRASLG-R110-GLSARRL, bis-rhodamine peptide kinase substrate (bis-kemptide)
T6 sequence: LRRASLG

[7] = system: T7, bis-PTK-5 (YIYGAFKRRG-R110-GRRKFAGYIY)
T7 sequence: YIYGAFKRRG

[8] = biological target: T8, bis-PTK5p-R110 (YIY(PO3)GAFKRRG-R110-GRRKFAG(PO3)YIY) (not fully specified)
T8 chain: YIYGAFKRRG

Molecule: AKT
- fluorescence output after aminopeptidase M [1]: the change in output fluorescence in each assay was inversely proportional to the amount of enzyme in the reaction (Results not shown)

Molecule: PKC
- fluorescence output after aminopeptidase M [1]: the change in output fluorescence in each assay was inversely proportional to the amount of enzyme in the reaction (Results not shown)

Molecule: PKG
- fluorescence output after aminopeptidase M [1]: the change in output fluorescence in each assay was inversely proportional to the amount of enzyme in the reaction (Results not shown)

Molecule: PP1
- fluorescence output after aminopeptidase M [2]: The results obtained show excellent proportionality between the fluorescence output and dephosphorylation of the substrate

Molecule: PP2B
- fluorescence output after aminopeptidase M [2]: The results obtained show excellent proportionality between the fluorescence output and dephosphorylation of the substrate

Molecule: PP2C
- fluorescence output after aminopeptidase M [2]: The results obtained show excellent proportionality between the fluorescence output and dephosphorylation of the substrate

Molecule: YOP 51
- fluorescence output after aminopeptidase M [3]: A similar profile was obtained with other tyrosine phosphatases, including YOP 51

Molecule: catalytic subunit of cAMP-dependent protein kinase (PKA)
- fluorescence output (AMC) after aminopeptidase M, with and without 50 uM ATP [4]: In the presence of ATP, the fluorescence output decreased in proportion to the increase in amount of enzyme
- kinase reaction, fluorescence output after aminopeptidase M [5]: the peptide substrate bis-SPK-2 is a better substrate for PKA than the peptide substrate bis-SPK-4
- kinase reaction, fluorescence output after aminopeptidase M [1]: the peptide substrate bis-SPK-2 is a better substrate for PKA than the peptide substrate bis-SPK-4
- fluorescence output (RFU) after aminopeptidase M [6]: there is a corresponding decrease in fluorescence output with increasing concentration or units of enzyme in the reaction

Molecule: serine/threonine phosphatase PP2A
- fluorescence output after Aminopeptidase II [2]: an increase in phosphatase activity resulted in an increase in fluorescence
- fluorescence output after aminopeptidase M [2]: PP2A dephosphorylated the substrate efficiently, and fluorescence increased proportionally to the amount of enzyme in the reaction

Molecule: tyrosine kinase lck
- fluorescence output after aminopeptidase M, with and without 100 uM ATP [7]: where 100 um ATP was included the decrease in fluorescence output was proportional to the increase in amount of enzyme in the reaction, and little or no change was observed in the absence of ATP

B1: PTP-1B, soluble tyrosine phosphatase (enzyme, UniProt P18031 1-435, looked up, species assumed)
Tyrosine-protein phosphatase non-receptor type 1: MEMEKEFEQIDKSGSWAAIYQDIRHEASDFPCRVAKLPKNKNRNRYRDVSPFDHSRIKLHQEDNDYINASLIKMEEAQRSYILTQGPLPNTCGHFWEMVWEQKSRGVVMLNRVMEKGSLKCAQYWPQKEEKEMIFEDTNLKLTLISEDIKSYYTVRQLELENLTTQETREILHFHYTTWPDFGVPESPASFLNFLFKVRESGSLSPEHGPVVVHCSAGIGRSGTFCLADTCLLLMDKRKDPSSVDIKKVLLEMRKFRMGLIQTADQLRFSYLAVIEGAKFIMGDSSVQDQWKELSHEDLEPPPEHIPPPPRPPKRILEPHNGKCREFFPNHQWVKEETQEDKDCPIKEEKGSPLNAAPYGIESMSQDTEVRSRVVGGSLRGAQAASPAKGEPSLPEKDEDHALSYWKPFLVNMCVATVLTAGAYLCYRFLFNSNT
- fluorescence output after aminopeptidase M [3]: the increase in the fluorescence output is proportional to the amount of phosphatase added per reaction

B2: CD45, recombinant human receptor protein tyrosine phosphatase (protein)
chain: SCNLDEQQELVERDDEKQLMNVEPIHADILLETYKRKIADEGRLFLAEFQSIPRVFSKFPIKEARKPFNQNKNRYVDILPYDYNRVELSEINGDAGSNYINASYIDGFKEPRKYIAAQGPRDETVDDFWRMIWEQKATVIVMVTRCEEGNRNKCAEYWPSMEEGTRAFGDVVVKINQHKRCPDYIIQKLNIVNKKEKATGREVTHIQFTSWPDHGVPEDPHLLLKLRRRVNAFSNFFSGPIVVHCSAGVGRTGTYIGIDAMLEGLEAENKVDVYGYVVKLRRQRCLMVQVEAQYILIHQALVEYNQFGETEVNLSELHPYLHNMKKRDPPSEPSPLEAEFQRLPSYRSWRTQHIGNQEENKSKNRNSNVIPYDYNRVPLKHELEMSKESEHDSDESSDDDSDSEEPSKYINASFIMSYWKPEVMIAAQGPLKETIGDFWQMIFQRKVKVIVMLTELKHGDQEICAQYWGEGKQTYGDIEVDLKDTDKSSTYTLRVFELRHSKRKDSRTVYQYQYTNWSVEQLPAEPKELISMIQVVKQKLPQKNSSEGNKHHKSTPLLIHCRDGSQQTGIFCALLNLLESAETEEVVDIFQVVKALRKARPGMVSTFEQYQFLYDVIASTYPAQNGQVKKNNHQEDKIEFDNEVDKVKQDANCVNPLGAPEKLPEAKEQAEGSEPTSGTEGPEHSVNGPASPALNQGS
- fluorescence output after aminopeptidase M [8]: the increase in the fluorescence output is proportional to the amount of phosphatase added per reaction
